Test results: article PMC9122601, “A widespread family of WYL-domain transcriptional regulators co-localizes with diverse phage defence systems and islands”
Values belong to the molecule of their own block, whether it stands above or below them.

Experiments:
[1] = target: BrxR from Escherichia fergusonii, untagged (Escherichia fergusonii ATCC 35469); assay: SEC; analytical gel filtration, Superdex 200 Increase GL 5/150, 20 mM Tris-HCl pH 7.9, 150 mM NaCl, 0.175 ml/min; 50 μl samples with 5 μl of 1000 nM protein; oligomeric state from elution volume against calibration standards
[2] = target: His6-BrxR-R17A from Escherichia fergusonii (Escherichia fergusonii ATCC 35469); assay: as above
[3] = target: His6-BrxR from Escherichia fergusonii (Escherichia fergusonii ATCC 35469); assay: as above
[4] = target: T1, His6-BrxR (BrxR-Efer) (Escherichia fergusonii (plasmid pEFER), UniProt B7L3Y3 14-308); assay: EMSA; only non-specific binding at high protein; EMSA: 10 mM Tris-HCl pH 7.9, 150 mM KCl, 0.5 mM EDTA, 0.2 mM DTT, 0.1% Triton X-100, 13% glycerol (1x of 5x buffer), 1 ug poly(dI-dC) per 10 ul, 2500 fmol probe, 25 C 30 min; 7% native PAGE in 0.5x TBE; conditions: protein: recombinant; tags: N-terminal His6; chain copies: 2; label: 5' 6-FAM on reverse strand (primer TRB1068); blunt
T1 sequence: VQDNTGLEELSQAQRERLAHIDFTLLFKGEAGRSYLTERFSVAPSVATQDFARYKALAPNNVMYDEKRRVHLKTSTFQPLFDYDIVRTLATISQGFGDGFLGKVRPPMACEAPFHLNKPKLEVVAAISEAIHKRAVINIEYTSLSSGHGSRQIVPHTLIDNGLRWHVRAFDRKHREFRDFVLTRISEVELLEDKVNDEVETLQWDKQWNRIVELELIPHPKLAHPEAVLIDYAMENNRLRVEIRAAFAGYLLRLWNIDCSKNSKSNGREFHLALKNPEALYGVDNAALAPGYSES

[5] = target: T1, His6-BrxR (BrxR-Efer); assay: EMSA; EMSA: 10 mM Tris-HCl pH 7.9, 150 mM KCl, 0.5 mM EDTA, 0.2 mM DTT, 0.1% Triton X-100, 13% glycerol (1x of 5x buffer), 1 ug poly(dI-dC) per 10 ul, 2500 fmol probe, 25 C 30 min; 7% native PAGE in 0.5x TBE; conditions: protein: recombinant; tags: N-terminal His6; chain copies: 2; label: 5' 6-FAM on reverse strand (primer TRB1068); blunt

stoichiometry N [1]: 2
Molecule: BrxR from Escherichia fergusonii, untagged (natural protein)

Molecule: His6-BrxR-R17A from Escherichia fergusonii (natural protein)
stoichiometry N [2]: 2

stoichiometry N [3]: 2
Molecule: His6-BrxR from Escherichia fergusonii (natural protein)

B1: IR1c-IR2c probe (dsDNA)
DNA 1: GACGACTTGTTGATACTATCCCCCCCCCCCAAAAACCCCCCCCCCCTTGATGGCATTCAATCGATGGCTTAAGCTTTTGTCAGTGCGCA
DNA 2: TGCGCACTGACAAAAGCTTAAGCCATCGATTGAATGCCATCAAGGGGGGGGGGGTTTTTGGGGGGGGGGGATAGTATCAACAAGTCGTC
binding result [4]: no binding

B2: WT IR1-IR2 probe (R7, R-BOX1) (dsDNA)
DNA 1: GACGACTTGTTGATACTATGAAACCTACTGAAAAACAGTAGGTTGCTTGATGGCATTCAATCGATGGCTTAAGCTTTTGTCAGTGCGCA
DNA 2: TGCGCACTGACAAAAGCTTAAGCCATCGATTGAATGCCATCAAGCAACCTACTGTTTTTCAGTAGGTTTCATAGTATCAACAAGTCGTC
Kd [5]: 13 ± 2.7 nM

B3: IR1c-IR2 probe (dsDNA)
DNA 1: GACGACTTGTTGATACTATCCCCCCCCCCCAAAAACAGTAGGTTGCTTGATGGCATTCAATCGATGGCTTAAGCTTTTGTCAGTGCGCA
DNA 2: TGCGCACTGACAAAAGCTTAAGCCATCGATTGAATGCCATCAAGCAACCTACTGTTTTTGGGGGGGGGGGATAGTATCAACAAGTCGTC
Kd [5]: 24 ± 6.5 nM

B4: IR1-IR2c probe (dsDNA)
DNA 1: GACGACTTGTTGATACTATGAAACCTACTGAAAAACCCCCCCCCCCTTGATGGCATTCAATCGATGGCTTAAGCTTTTGTCAGTGCGCA
DNA 2: TGCGCACTGACAAAAGCTTAAGCCATCGATTGAATGCCATCAAGGGGGGGGGGGTTTTTCAGTAGGTTTCATAGTATCAACAAGTCGTC
Kd [5]: 85.5 ± 18.7 nM
